Experiments:
Assay in all cases: holdup assay
Parameters in all cases: key: below the threshold = too weak to quantify, mostly under pKd 3.1 to 4
[1] = target: PDLIM1, O00151
[2] = target: T1, ARHGEF11, O15085
T1 sequence (O15085 42-136, limits assumed, looked up): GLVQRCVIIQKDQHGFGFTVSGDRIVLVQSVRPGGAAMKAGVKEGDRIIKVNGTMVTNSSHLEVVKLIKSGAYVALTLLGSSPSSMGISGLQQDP

[3] = target: T2, RAPGEF6, Q8TEU7
T2 sequence (Q8TEU7 525-625, limits assumed, looked up): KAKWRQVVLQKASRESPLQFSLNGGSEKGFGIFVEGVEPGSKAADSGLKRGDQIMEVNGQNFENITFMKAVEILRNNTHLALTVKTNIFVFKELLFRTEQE

[4] = target: PTPN3, P26045
PTPN3, P26045, sequence (P26045 505-587): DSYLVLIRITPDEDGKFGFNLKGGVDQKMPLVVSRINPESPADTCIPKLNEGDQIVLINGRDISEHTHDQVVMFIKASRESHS

[5] = target: Inadl_3, Q8NI35
Inadl_3, Q8NI35, sequence (Q8NI35 359-469): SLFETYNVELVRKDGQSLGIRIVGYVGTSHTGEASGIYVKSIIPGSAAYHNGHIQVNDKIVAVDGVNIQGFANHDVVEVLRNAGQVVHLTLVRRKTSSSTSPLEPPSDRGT

[6] = target: Inadl_2, Q8NI35
Inadl_2, Q8NI35, sequence (Q8NI35 238-335): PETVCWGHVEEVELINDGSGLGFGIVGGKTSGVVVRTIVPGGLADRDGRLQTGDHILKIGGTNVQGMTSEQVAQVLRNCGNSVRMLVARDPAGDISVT

[7] = target: T3, RADIL, Q96JH8
T3 sequence (Q96JH8 971-1071, limits assumed, looked up): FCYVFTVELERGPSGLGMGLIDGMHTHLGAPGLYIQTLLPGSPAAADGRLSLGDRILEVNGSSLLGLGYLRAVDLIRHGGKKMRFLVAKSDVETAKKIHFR

[8] = target: TJP1_3, Q07157
TJP1_3, Q07157, sequence (Q07157 416-512): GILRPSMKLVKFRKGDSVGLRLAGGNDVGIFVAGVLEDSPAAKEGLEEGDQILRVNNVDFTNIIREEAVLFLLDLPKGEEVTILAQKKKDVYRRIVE

[9] = target: Inadl_6, Q8NI35
Inadl_6, Q8NI35, sequence (Q8NI35 1058-1167): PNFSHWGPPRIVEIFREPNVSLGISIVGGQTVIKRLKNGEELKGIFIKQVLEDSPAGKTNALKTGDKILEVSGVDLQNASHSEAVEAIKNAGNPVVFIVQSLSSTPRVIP

[10] = target: T4, CARD11, Q9BXL7
T4 sequence (Q9BXL7 662-765, limits assumed, looked up): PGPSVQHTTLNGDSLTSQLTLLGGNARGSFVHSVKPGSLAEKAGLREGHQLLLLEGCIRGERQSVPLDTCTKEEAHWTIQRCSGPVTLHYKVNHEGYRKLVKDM

[11] = target: HTRA2, O43464
HTRA2, O43464, sequence (O43464 355-458): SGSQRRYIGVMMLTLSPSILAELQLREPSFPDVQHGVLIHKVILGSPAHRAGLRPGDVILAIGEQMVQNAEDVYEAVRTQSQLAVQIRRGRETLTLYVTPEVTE

[12] = target: T5, SIPA1L2, Q9P2F8
T5 sequence (Q9P2F8 945-1036, limits assumed, looked up): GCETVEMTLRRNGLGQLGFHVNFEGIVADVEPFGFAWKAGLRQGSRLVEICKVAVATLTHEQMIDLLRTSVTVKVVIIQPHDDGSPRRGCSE

[13] = target: GRIP2_5, Q9C0E4
GRIP2_5, Q9C0E4, sequence (Q9C0E4 544-642): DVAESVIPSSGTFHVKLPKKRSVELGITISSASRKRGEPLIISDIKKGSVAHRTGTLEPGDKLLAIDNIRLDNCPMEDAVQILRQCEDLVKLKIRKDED

[14] = target: NHERF4_4, Q86UT5
NHERF4_4, Q86UT5, sequence (Q86UT5 464-550): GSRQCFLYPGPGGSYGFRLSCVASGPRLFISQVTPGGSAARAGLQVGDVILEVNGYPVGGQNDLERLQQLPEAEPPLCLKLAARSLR

[15] = target: IL16_4, Q14005
IL16_4, Q14005, sequence (Q14005 1229-1329): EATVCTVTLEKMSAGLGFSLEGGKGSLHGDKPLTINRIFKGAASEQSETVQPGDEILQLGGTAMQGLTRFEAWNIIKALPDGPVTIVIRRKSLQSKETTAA

[16] = target: MAGI1_2, Q96QZ7
MAGI1_2, Q96QZ7, sequence (Q96QZ7 456-580): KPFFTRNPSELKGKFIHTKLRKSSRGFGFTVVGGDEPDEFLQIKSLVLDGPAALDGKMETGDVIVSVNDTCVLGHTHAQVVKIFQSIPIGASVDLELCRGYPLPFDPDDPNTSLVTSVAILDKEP

[17] = target: T6, MPP6, Q9NZW5
T6 sequence (Q9NZW5 125-219, limits assumed, looked up): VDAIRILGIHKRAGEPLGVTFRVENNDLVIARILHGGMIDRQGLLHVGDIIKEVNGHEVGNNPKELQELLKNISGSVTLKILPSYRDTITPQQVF

[18] = target: T7, LIN7C, Q9NUP9
T7 sequence (Q9NUP9 88-185, limits assumed, looked up): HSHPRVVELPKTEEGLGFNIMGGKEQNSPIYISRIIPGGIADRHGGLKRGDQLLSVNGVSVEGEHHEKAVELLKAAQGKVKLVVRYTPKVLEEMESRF

[19] = target: T8, DVL3, Q92997
T8 sequence (Q92997 244-331, limits assumed, looked up): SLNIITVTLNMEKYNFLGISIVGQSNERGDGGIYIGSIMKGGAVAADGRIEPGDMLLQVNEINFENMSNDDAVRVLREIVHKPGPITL

[20] = target: T9, ARHGAP21, Q5T5U3
T9 sequence (Q5T5U3 45-169, limits assumed, looked up): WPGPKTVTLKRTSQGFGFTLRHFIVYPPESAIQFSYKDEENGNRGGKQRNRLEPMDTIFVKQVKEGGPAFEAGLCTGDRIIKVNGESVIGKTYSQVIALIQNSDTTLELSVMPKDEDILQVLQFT

[21] = target: T10, MPDZ_5, O75970
T10 sequence (O75970 695-796, limits assumed, looked up): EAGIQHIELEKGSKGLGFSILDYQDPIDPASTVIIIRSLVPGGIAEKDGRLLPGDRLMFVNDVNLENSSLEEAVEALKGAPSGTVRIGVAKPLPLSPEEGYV

[22] = target: ARHGEF12, Q9NZN5-2
ARHGEF12, Q9NZN5-2, sequence (Q9NZN5 other isoform, or with tags, fused parts or gaps): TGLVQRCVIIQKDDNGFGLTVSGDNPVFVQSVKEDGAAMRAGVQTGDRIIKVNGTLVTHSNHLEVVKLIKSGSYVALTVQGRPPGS

[23] = target: GIPC2, Q8TF65
GIPC2, Q8TF65, sequence (Q8TF65 112-203): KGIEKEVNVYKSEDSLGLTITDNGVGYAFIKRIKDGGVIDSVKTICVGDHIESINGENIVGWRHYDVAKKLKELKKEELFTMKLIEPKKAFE

[24] = target: T11, MPDZ_10, O75970
T11 sequence (O75970 1624-1722, limits assumed, looked up): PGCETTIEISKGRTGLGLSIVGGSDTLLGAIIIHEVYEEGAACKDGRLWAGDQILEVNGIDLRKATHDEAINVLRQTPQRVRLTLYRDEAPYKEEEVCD

[25] = target: T12, PTPN13_1, Q12923
T12 sequence (Q12923 1088-1188, limits assumed, looked up): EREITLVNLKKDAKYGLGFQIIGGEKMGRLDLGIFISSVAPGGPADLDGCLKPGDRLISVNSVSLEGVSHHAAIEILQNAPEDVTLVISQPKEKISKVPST

[26] = plain residues with an end cap or a label only (N-terminal biotin on a linker: ttds)
[27] = plain residues with an end cap or a label only (N-terminal biotin on a linker: ado-ado)

PDLIM1, O00151, sequence (O00151 1-87): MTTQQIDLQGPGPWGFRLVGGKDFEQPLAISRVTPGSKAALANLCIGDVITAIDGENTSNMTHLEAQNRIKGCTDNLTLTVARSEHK

**Q.** Which results are given for SRRPRTETQV [HPV31-E6, P17386]?
**A.** pKd [1, 26]: below the threshold; pKd [2, 26]: 3.58; pKd [3, 26]: below the threshold; pKd [4, 26]: 4.66; pKd [5, 26]: below the threshold; pKd [6, 26]: below the threshold; pKd [7, 26]: below the threshold; pKd [8, 26]: below the threshold; pKd [9, 26]: below the threshold; pKd [10, 26]: below the threshold; pKd [11, 26]: below the threshold; pKd [12, 26]: below the threshold; pKd [13, 26]: below the threshold; pKd [14, 26]: below the threshold; pKd [15, 26]: below the threshold; pKd [16, 26]: 5.54; pKd [17, 26]: below the threshold; pKd [18, 26]: 3.93; pKd [19, 26]: below the threshold; pKd [20, 26]: below the threshold; pKd [21, 26]: below the threshold; pKd [22, 26]: 3.86; pKd [23, 26]: below the threshold; pKd [24, 26]: below the threshold; pKd [25, 26]: below the threshold

**Q.** With FVHPILQSAV [PRKCA, P17252] as the binder, how does the pKd [1, 27] read?
**A.** The pKd was “below the threshold”.

**Q.** What about the pKd [2, 27] of the same binder?
**A.** Its pKd is 4.17.

**Q.** What about the pKd [3, 27] of the same binder?
**A.** Its pKd is “below the threshold”.

**Q.** What about the pKd [4, 27] of the same binder?
**A.** The pKd was 4.59.

**Q.** And the pKd [5, 27]?
**A.** Its pKd is “below the threshold”.

**Q.** And the pKd [6, 27]?
**A.** Its pKd is “below the threshold”.

**Q.** What about the pKd [7, 27] of the same binder?
**A.** Its pKd is 3.57.

**Q.** What about the pKd [8, 27] of the same binder?
**A.** The pKd was “below the threshold”.

**Q.** What about the pKd [9, 27] of the same binder?
**A.** The pKd was “below the threshold”.

**Q.** What about the pKd [10, 27] of the same binder?
**A.** Its pKd is “below the threshold”.

**Q.** What about the pKd [11, 27] of the same binder?
**A.** The pKd was “below the threshold”.

**Q.** And the pKd [12, 27]?
**A.** The pKd was “below the threshold”.

**Q.** What about the pKd [13, 27] of the same binder?
**A.** Its pKd is “below the threshold”.

**Q.** What about the pKd [14, 27] of the same binder?
**A.** The pKd was “below the threshold”.

**Q.** What about the pKd [15, 27] of the same binder?
**A.** Its pKd is “below the threshold”.

**Q.** What about the pKd [16, 27] of the same binder?
**A.** The pKd was 3.73.

**Q.** What about the pKd [17, 27] of the same binder?
**A.** Its pKd is “below the threshold”.

**Q.** What about the pKd [18, 27] of the same binder?
**A.** Its pKd is 3.52.

**Q.** What about the pKd [19, 27] of the same binder?
**A.** Its pKd is “below the threshold”.

**Q.** What about the pKd [20, 27] of the same binder?
**A.** The pKd was 3.84.

**Q.** And the pKd [21, 27]?
**A.** Its pKd is “below the threshold”.

**Q.** What about the pKd [22, 27] of the same binder?
**A.** Its pKd is 4.22.

**Q.** And the pKd [23, 27]?
**A.** The pKd was “below the threshold”.

**Q.** And the pKd [24, 27]?
**A.** Its pKd is “below the threshold”.

**Q.** And the pKd [25, 27]?
**A.** Its pKd is “below the threshold”.

**Q.** What does the source list for TETASVCTKV [SLC23A1, Q9UHI7]?
**A.** pKd [1, 27]: below the threshold; pKd [2, 27]: 4.24; pKd [3, 27]: below the threshold; pKd [4, 27]: 3.97; pKd [5, 27]: below the threshold; pKd [6, 27]: below the threshold; pKd [7, 27]: 3.96; pKd [8, 27]: below the threshold; pKd [9, 27]: below the threshold; pKd [10, 27]: below the threshold; pKd [11, 27]: below the threshold; pKd [12, 27]: below the threshold; pKd [13, 27]: below the threshold; pKd [14, 27]: 3.89; pKd [15, 27]: 3.55; pKd [16, 27]: below the threshold; pKd [17, 27]: 3.87; pKd [18, 27]: 4.08; pKd [19, 27]: below the threshold; pKd [20, 27]: 3.94; pKd [21, 27]: below the threshold; pKd [22, 27]: 3.88; pKd [23, 27]: 3.6; pKd [24, 27]: 3.73; pKd [25, 27]: below the threshold

From article PMC9482650, “Quantitative fragmentomics allow affinity mapping of interactomes” (Nature Communications, 2022)
